Here are results for 2 molecules from patent US20260176352A1 (BIRD ROCK BIO, published 2026).

Residue numbers refer to the chain shown, from its start.

In assay [1] the target is T1, native full length human CB1 receptor (cannabinoid 1 receptor) (human, UniProt P21554 1-472). Nature of the assay: cell-based or functional assay.
For a further assay, the target named is T2, mouse CB1 (mouse, UniProt P47746 1-473).
T2 construct: whole, on cells; also called TRexCHO Mouse CB1
Nature of the assay: flow cytometry on cells expressing the target. On the technique in general: A flow cytometer gives signals particle by particle.

Assay [2] concerns the target 5HT2B (expression cell line) (Homo sapiens (Human), UniProt P41595 1-481). Nature of the assay: flow cytometry on cells expressing the target.
In another assay the target is T3, human CB2 (human, UniProt P34972 1-360).
T3 construct: whole, on cells; also called TRexCHO Human CB2
T3 sequence (P34972 whole entry): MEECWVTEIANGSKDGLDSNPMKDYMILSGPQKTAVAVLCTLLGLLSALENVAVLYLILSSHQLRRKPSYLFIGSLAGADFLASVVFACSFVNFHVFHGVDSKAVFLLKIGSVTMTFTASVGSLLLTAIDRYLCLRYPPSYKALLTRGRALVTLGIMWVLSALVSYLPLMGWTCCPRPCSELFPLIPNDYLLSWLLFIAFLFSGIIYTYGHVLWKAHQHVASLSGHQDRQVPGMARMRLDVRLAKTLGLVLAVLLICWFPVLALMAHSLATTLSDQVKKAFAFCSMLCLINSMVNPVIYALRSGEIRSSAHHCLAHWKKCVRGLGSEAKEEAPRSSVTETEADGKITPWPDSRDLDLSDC
Briefly: flow cytometry on cells expressing the target.

Assay [3] has as its target T1, native full length human CB1 receptor …. Briefly: flow cytometry, Fab on TRex-CHO human CB1 cells.
Experimental: Three-fold serial dilutions from 3 μM to 0.1 μM were prepared.
Assay [4] shares this target. Nature of the assay: binding to CB1 cells (FIG. 12); labeled with Vivotag 680 XL.

T1 sequence (P21554 whole entry): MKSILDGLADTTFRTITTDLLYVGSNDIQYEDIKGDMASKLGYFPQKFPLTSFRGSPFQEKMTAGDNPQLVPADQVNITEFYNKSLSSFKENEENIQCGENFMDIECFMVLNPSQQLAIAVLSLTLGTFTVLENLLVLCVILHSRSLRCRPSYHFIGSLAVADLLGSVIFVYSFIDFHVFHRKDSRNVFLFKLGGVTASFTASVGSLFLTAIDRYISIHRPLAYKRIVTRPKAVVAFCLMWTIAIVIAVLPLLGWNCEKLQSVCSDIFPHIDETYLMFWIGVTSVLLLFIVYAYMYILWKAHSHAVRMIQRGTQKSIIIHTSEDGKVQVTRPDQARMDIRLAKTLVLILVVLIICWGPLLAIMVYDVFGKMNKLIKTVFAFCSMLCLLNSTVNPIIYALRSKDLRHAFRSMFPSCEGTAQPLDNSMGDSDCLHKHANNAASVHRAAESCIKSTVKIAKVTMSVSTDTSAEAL
T2 sequence (P47746 whole entry): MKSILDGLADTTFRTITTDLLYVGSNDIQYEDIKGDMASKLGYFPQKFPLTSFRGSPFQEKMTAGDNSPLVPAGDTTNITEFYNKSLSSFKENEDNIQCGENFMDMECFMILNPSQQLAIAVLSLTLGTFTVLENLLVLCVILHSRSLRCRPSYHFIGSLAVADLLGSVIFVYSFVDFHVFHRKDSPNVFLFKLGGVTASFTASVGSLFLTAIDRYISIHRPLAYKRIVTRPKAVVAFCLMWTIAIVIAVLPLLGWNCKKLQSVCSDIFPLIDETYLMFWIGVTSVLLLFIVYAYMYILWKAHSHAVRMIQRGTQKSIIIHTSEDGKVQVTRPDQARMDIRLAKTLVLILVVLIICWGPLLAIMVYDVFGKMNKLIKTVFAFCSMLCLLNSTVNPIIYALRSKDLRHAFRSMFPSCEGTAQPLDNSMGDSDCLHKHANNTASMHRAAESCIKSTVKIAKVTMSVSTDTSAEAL
5HT2B (expression cell line), sequence (P41595 whole entry): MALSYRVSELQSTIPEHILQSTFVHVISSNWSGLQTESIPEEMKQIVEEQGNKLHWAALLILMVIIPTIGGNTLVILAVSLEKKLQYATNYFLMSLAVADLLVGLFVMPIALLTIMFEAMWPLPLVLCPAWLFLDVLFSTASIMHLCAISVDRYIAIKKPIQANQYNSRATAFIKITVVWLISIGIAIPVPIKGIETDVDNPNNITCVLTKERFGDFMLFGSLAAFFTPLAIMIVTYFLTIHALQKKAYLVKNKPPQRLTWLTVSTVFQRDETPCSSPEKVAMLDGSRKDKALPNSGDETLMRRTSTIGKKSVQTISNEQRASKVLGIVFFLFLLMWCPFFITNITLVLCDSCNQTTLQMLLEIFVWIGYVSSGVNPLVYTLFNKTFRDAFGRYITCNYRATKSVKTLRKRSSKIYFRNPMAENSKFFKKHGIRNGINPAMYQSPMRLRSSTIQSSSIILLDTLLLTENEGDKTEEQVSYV

B1: PA13R3-P1C4 Fab (Fab, V domains shown)
VH: EVQLQQSGAELVRPGVSVKISCKASGYEFSYYWMNWVKQRPGQGLEWIGQIYPGDGETKYNGKFKGKATLTADKSSNTAYMQLSSLTSEDSAVYFCARSHGNYLPYWGQGTLVTVSA
VL: DIVLTQSPAIMSASLGERVTMTCTASSSVSSSYLHWYQQKPGSSPKLWIYSTSNLASGVPARFSGSGSGTSYSLTISSMEAEDAATYYCHQYHRSPPTFGAGTKLELK
notes: also called Chimeric P1C4 Fab
For the molecule B1, the “IC50 cAMP assay” value in assay [1] came to 427 nM. In addition, the binding result (with mouse CB1; in assay [2]; in the assay with human CB2) was “no binding (tested: 1 µM)” each time. Also, the Kd (commonly the constant that tells how readily two partners part at equilibrium) in assay [3] stood at 130 nM.

B2: P4B5 antibody labeled with Vivotag 680 XL (antibody, human IgG1, kappa, V domains shown)
VH: B1 VH with V16S, E28A, E57D, K59N, N61S, K63R, N77S, M81I, L104F
VL: DIVLNQSPAIMSASLGERVTMTCTASSSVSSSYLHWYQQKPGSSPKLWIYSTSNLASGVPARFSGSGSGTSYSLTISSMEAEDAATYYCHQYHRSPLTFGAGTKLEIKR
modifications: Vivotag 680 XL label, site and chain not stated
notes: also called Labeled P4B5
Turning to B2, a half-maximal response in assay [4] (EC50) required 57.8 nM.
